Publication PMC4330383

Experiments:
[1] = molecular target: histones H3-H4 (full-length, recombinant Drosophila melanogaster) (Drosophila melanogaster) (UniProt P02299); test: SEC-MALS; Superdex 200 10/300 GL Increase, 50 mM Tris pH 8.0, 0.5 M NaCl, 20°C
[2] = molecular target: histones H3-H4 (full-length, recombinant Drosophila melanogaster) (Drosophila melanogaster) (UniProt P02299); test: SEC-MALS; Superdex 200 10/300 GL Increase, 50 mM Tris pH 8.0, 1.5 M NaCl; for H3-H4 alone: tetramer of two H3-H4 dimers

Chain of ASF1a (1–156) (Q9Y294 1-156): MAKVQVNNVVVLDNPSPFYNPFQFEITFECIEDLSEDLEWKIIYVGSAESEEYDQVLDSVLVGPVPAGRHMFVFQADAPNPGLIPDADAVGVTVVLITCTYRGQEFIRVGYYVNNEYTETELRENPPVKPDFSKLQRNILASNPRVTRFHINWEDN

stoichiometry N (ASF1 per H3-H4 dimer (ratio H3:H4:ASF1)) [1] | stoichiometry N (ASF1 per H3-H4 dimer (ratio H3:H4:ASF1)) [2] | stoichiometry N ([2]; scale: H3-H4 dimers in the oligomer) | Substance
1 | 1 | – | ASF1a (1–156) (from UniProt Q9Y294 1-156) (domain or fragment; other documents disagree on this pair)
– | – | 2 | histones H3-H4 (full-length, recombinant Drosophila melanogaster) (from UniProt P02299 1-136; P84040 1-103) (complex)
